Measured values taken from patent US20040018971A1 (published 2004).
Blank lines part the entries; values can stand above or below the binder they belong to. Where no end group is shown, it is not given here. [ ]: non-standard residue; d: D form. Abu = CC[C@H](N)C(=O)O

How the values were obtained:
HLA-A*0301 [1] = target: T1, HLA-A*0301 (human); experiment: inhibition of 125I-labelled probe peptide binding to purified HLA-A*0301, gel filtration; ratio to standard peptide 941.12 [..] (11 nM); the negative sign is not explained
T1 construct: also called HLA-A3

HLA-DR3 (DRB1*0301) = target: T2, HLA-DR3 (DRB1*0301) (human); experiment: competition with 125I-labelled probe peptide on purified HLA-DR, gel filtration; IC50 of standard peptide / IC50 of test peptide
T2 construct: Purified HLA class II molecule

HLA-DRB1*0301 = target: T3, HLA-DRB1*0301 (human); experiment: competition with 125I-labeled standard peptide, purified HLA-DR, gel filtration
T3 construct: also called DR3

[2] = target: HLA-DR3 (DRB1*0301), purified HLA class II molecule (human); experiment: competition with 125I-labelled probe peptide, purified HLA-DR
HLA-DR7 (DRB1*0701) = target: T4, HLA-DR7 (DRB1*0701) (human); experiment: competition binding assay, purified HLA, 125I-labelled probe peptide, gel filtration
T4 construct: purified HLA class II molecule

HLA-DR4w4 (DRB1*0401) = target: T5, HLA-DR4w4 (DRB1*0401) (human); experiment: as above
T5 construct: purified HLA class II molecule

HLA-DR1 (DRB1*0101) = target: T6, HLA-DR1 (DRB1*0101) (human); experiment: as above
T6 construct: purified HLA class II molecule

HLA-A*0206 = HLA-A*0206 (human); experiment: competition with 125I probe peptide for purified HLA
HLA-A*0201 = target: T7, HLA-A*0201 (human); experiment: as above
T7 construct: also called HLA-A2.1

HLA-A*6802 = HLA-A*6802 (human); experiment: as above
HLA-A*0202 = HLA-A*0202 (human); experiment: as above
HLA-A*0203 = HLA-A*0203 (human); experiment: as above
HLA-A*3101 = HLA-A*3101 (human); experiment: competition with 125I-labelled standard peptide for purified HLA; gel filtration
HLA-A*6801 = HLA-A*6801 (human); experiment: as above
HLA-A*3301 = HLA-A*3301 (human); experiment: as above
HLA-A*0301 [3] = target: HLA-A*0301 (human); experiment: as above
HLA-A*1101 = HLA-A*1101 (human); experiment: as above

B1: HER2/neu peptide, position 1173, 10 amino acids (peptide)
peptide: LSPGKNGVVK
notes: Synthetic peptide; also called Her2/neu.1173 (10-mer)
relative binding ratio (IC50 of standard peptide / IC50 of test peptide) (HLA-A*0301 [1]): -0.0002

Binder: AIKVLRENTSPKANK (also called Her2/neu.751) [HER2/neu peptide AIKVLRENTSPKANK (position 751)]
relative binding ratio (HLA-DR3 (DRB1*0301)): 0.0075 ratio

B3: HER2/neu DR supermotif exemplary peptide KGPLPTDCCHEQCAA (position 228) (peptide)
peptide: KGPLPTDCCHEQCAA
notes: synthetic 15-mer; also called Her2/neu.228
relative binding ratio (HLA-DRB1*0301): -0.0027 ratio (standard IC50 / test IC50)

Binder: RSLLEDDDMGDLVDA (also called Her2/neu.1006) [HER2/neu DR supermotif exemplary 15-mer RSLLEDDDMGDLVDA (position 1006)]
relative binding ratio [2]: 0.008 ratio (IC50 standard / IC50 test)

Binder: QGFFCPDPAPGAGGM (also called Her2/neu.1028) [HER2/neu peptide QGFFCPDPAPGAGGM (position 1028)]
relative binding ratio (HLA-DR7 (DRB1*0701)): -0.0011 ratio to standard peptide
relative binding ratio (HLA-DR4w4 (DRB1*0401)): 0.023 ratio to standard peptide
relative binding ratio (HLA-DR1 (DRB1*0101)): -0.0005 ratio to standard peptide

Binder: AT[Abu]RWGLLV [Her2/neu.5.T2B3V9 ATBRWGLLV]
IC50 (HLA-A*0206): 2180 nM
IC50 (HLA-A*0201): 16700 nM
IC50 (HLA-A*6802): 1740 nM
IC50 (HLA-A*0202): 215 nM

Binder: AV[Abu]RWGLLV [Her2/neu.5V2B3V9 AVBRWGLLV]
IC50 (HLA-A*0206): 2180 nM
IC50 (HLA-A*0201): 10000 nM
IC50 (HLA-A*0203): 141 nM
IC50 (HLA-A*6802): 4710 nM
IC50 (HLA-A*0202): 215 nM

Binder: LVKSPNHVR [Her2/neu.852.R9]
IC50 (HLA-A*3101): 198 nM
IC50 (HLA-A*6801): 50 nM
IC50 (HLA-A*3301): 107 nM
IC50 (HLA-A*0301 [3]): 7860 nM

Binder: AVPLDSTFYR [Her2/neu.997.V2]
IC50 (HLA-A*3101): 30000 nM
IC50 (HLA-A*6801): 73 nM
IC50 (HLA-A*1101): 88 nM
IC50 (HLA-A*0301 [3]): > 110000 nM

Binder: AVPLDSTFYK [Her2/neU.997.V2K10]
IC50 (HLA-A*3101): 1500 nM
IC50 (HLA-A*6801): 229 nM
IC50 (HLA-A*1101): 33 nM
IC50 (HLA-A*3301): 22300 nM
IC50 (HLA-A*0301 [3]): 550 nM

Next, values leading:

relative binding ratio (IC50 of standard peptide / IC50 of test peptide) (HLA-A*0301 [1]): -0.0002
B2: HER2/neu peptide, position 1162, 10 amino acids (peptide)
peptide: PAGATLERPK
notes: Synthetic peptide; also called Her2/neu.1162 (10-mer)

relative binding ratio (HLA-DR3 (DRB1*0301)): -0.0025 ratio
Binder: DLTLGLEPSEEEAPR (also called Her2/neu.1058) [HER2/neu peptide DLTLGLEPSEEEAPR (position 1058)]

relative binding ratio (HLA-DR3 (DRB1*0301)): -0.0025 ratio
Binder: FVVIQNEDLGPASPL (also called Her2/neu.986) [HER2/neu peptide FVVIQNEDLGPASPL (position 986)]

relative binding ratio (HLA-DRB1*0301): -0.0027 ratio (standard IC50 / test IC50)
B4: HER2/neu DR supermotif exemplary peptide PSGVKPDLSYMPIWK (position 601) (peptide)
peptide: PSGVKPDLSYMPIWK
notes: synthetic 15-mer; also called Her2/neu.601

relative binding ratio [2]: 0.0023 ratio (IC50 standard / IC50 test)
Binder: TAPLQPEQLQVFETL (also called Her2/neu.389) [HER2/neu DR supermotif exemplary 15-mer TAPLQPEQLQVFETL (position 389)]

relative binding ratio [2]: 0.022 ratio (IC50 standard / IC50 test)
Binder: VHTVPWDQLFRNPHQ (also called Her2/neu.477) [HER2/neu DR supermotif exemplary 15-mer VHTVPWDQLFRNPHQ (position 477)]

IC50 (HLA-A*0206): 726 nM
IC50 (HLA-A*0201): 36 nM
IC50 (HLA-A*0203): 16 nM
IC50 (HLA-A*0202): 473 nM
Binder: AM[Abu]RWGLLV [Her2/neu.5M2B3V9 AMBRWGLLV]
